{"source": "patent US20140018288A1", "about": "“X-DING-CD4 Peptide” (priority 2012, published 2014)", "key": {"[1]": {"tested_on": "NL4-3 HIV-1 isolate", "assay": "MAGI assay of HIV-1 replication in MAGI-CCR-5 cells", "type": "cell-based", "conditions": "MAGI-CCR-5 cells, NL4-3 HIV-1", "method": "The antiviral activity of rX-DING-CD4^pep was tested by MAGI assay. […] Subsequently, cells were exposed to rX-DING-CD4^pep treatment in the presence of DMEM supplemented with 5% fetal bovine serum, antibiotics, glutamate and […] DEAE dextran. […] Replication of virus was evaluated forty eight hours later after fixation of cells with 1% formaldehyde and 0.2% glutaraldehyde in PBS. Expression of β-galactosidase was visualized by 50 min exposure to X-GAL (5-bromo-4-chloro-3-indolyl-β-D-galactopyranoside), 0.4 mg/ml 2 mM MgCl2, 4 mM potassium ferricyanide at 37° C. After enumeration of the infected (blue) cells, all cells were lysed and subjected to the protein assay (Bio-Rad). All data were adjusted by total protein concentration and anti-viral activity was calculated as percent inhibition. The infected untreated and uninfected cells served as (+) and (−) controls to calculate 100% virus infectivity. The inhibition values for HIV-1 replication were calculated based on the formula [(R1−R0)×100/Z]-100; where R1 is the value obtained from cells infected by HIV-1 and treated with specific dilution of X-DING-CD4^pep and R^0 is the basal value obtained from the uninfected and untreated cells; Z is the absolute HIV-1 replication value calculated as Z═Rmax−R0, where Rmax is the value representing 100% of HIV-1 replication in X-DING-CD4^pep untreated cells."}, "[2]": {"assay": "Acute toxicity after intraperitoneal injection in mice", "type": "in vivo, mice (B6/SJL)", "conditions": "1-50 μg rX-DING-CD4^pep or 50 μg nX-DING-CD4, 7 days", "method": "In the animal tests, eight-week old wild-type mice (B6/SJL) with both genders in each test group were injected intraperitoneally with 1-50 μg of rX-DING-CD4^pep or 50 μg nX-DING-CD4. The nX-DING-CD4 refers to the native form of X-DING-CD4 protein that was purified through IXC chromatography from the extracellular compartment of HIV-1 resistant T-cells. The rX-DING-CD4^pep refers to therapeutic X-DING-CD4 peptide that was expressed in E. coli and purified through Ni-affinity column. Toxicity was assessed by obvious symptoms including diarrhea, ruffled fur, abnormal gait, or loss of more than 10% weight. Animals were weighted before injection and then observed every hour for the first 10 hours after injection; then animals were weighted on 1, 3, 4 and 7 days after X-DING-CD4 administration. […] In its highest administered dose (50 μg—corresponding to 2 μg/G) we exceeded therapeutic dose blocking 95% of HIV promoter activity (by RSA assays) and 90% virus replication (by MAGI assays) (See FIGS. 2 & 3 in Example 2)."}, "[3]": {"tested_on": "EcoHIV (ecotropic HIV-1 EcoNDK)", "assay": "EcoHIV mouse model of HIV infection, Tat and Vif mRNA by qRT-PCR", "type": "in vivo, C57BL mice", "conditions": "two intraperitoneal doses of 20 μg", "description": "The mouse model of HIV infection is well-known by persons skilled in the art and is widely used to study therapeutic activities of various pharmaceutical agents. It was generated by using chimeric HIV (EcoHIV), which is a modified HIV that can infect mouse T cells and macrophages and can establish persistent infection of immunocompetent mice after intravenous or intraperitoneal exposure (Potash et al., 2005). The EcoHIV infection mouse model reproduces many characteristics of HIV-1 infection in humans such as virus targeting to lymphocytes and macrophages, induction of antiviral immune responses, neuroinvasiveness, and elevation of expression of inflammatory and antiviral factors in the brain (Potash et al., 2005). […]\nIn this example, we started with three groups of C57BL mice (groups I, II and III), each group having three mice. […] The amount of EcoHIV-1 virus load was assessed by determining the messenger RNA (mRNA) levels of HIV-Tat and Vif genes by quantitative RT-PCR (qRT-PCR). The amount of HIV-1 Gag DNA in the each sample, which was also determined by qRT-PCR, was used as a quantitative control for the HIV-Tat and Vif mRNA levels. […]"}, "[4]": {"tested_on": "X-DING-CD4 mRNA", "assay": "Induction of X-DING-CD4 mRNA expression in 1G5 cells (qRT-PCR)", "type": "cell-based", "conditions": "6 hours, 200 ng/ml", "method": "The sX-DING-CD4 may be released from the macropinosome to endoplasmic reticulum (ER) and cause induction of IFNα, which in turn induces the expression of X-DING-CD4 mRNA and endogenous X-DING-CD4 protein (step 2). The induction of X-DING-CD4 mRNA by sX-DING-CD4 was tested in 1G5 cells. Briefly, three groups of 1G5 cells were treated for 6 hours with NL4-3 HIV-1 at MOI of 0.1, 200 ng/ml native X-DING-CD4 protein, and 1-126 rX-DING-CD4 peptide (i.e., rX-DING-CD4^pep), respectively. […] The eX-DING-CD4, derived from the newly synthesized X-DING-CD4, binds CN and is transported into the nucleus where it blocks LTR transcription (steps 2-7).\nTwo peptide fragments from the N-terminal region of X-DING-CD4 were synthesized and their activities in inducing IFN-α and X-DING-CD4 mRNA expressions were determined by qRT-PCR. The concentration of proteins used in the assays was 200 ng/ml except for the combination of XD-1 and XD-4 where we used 100 ng/ml of each peptide. The 1-126 rX-DING-CD4 and peptide C3 p16 served as positive and negative controls, respectively. The C3 Peptide P16 was derived from the C3d component of serum complement. C3 Peptide P16 regulates B cells, but not T cells, through interacting with the gp140 C3d receptor (CR2)."}}}
{"molecule": "MADINGGGATLPQPLYQTSGVLTAGFAPYIGVGSGKGKLAFLNNDYSQFGTGTKNVHWAGSDSKLTSTELSTYASTKQAAWGKLIQVPSVATSVAIPFNKAGSNAVDLSVDQLCGVFSGRITTWNQ (protein, listed as Homo sapiens) MADINGGGATLPQPLYQTSGVLTAGFAPYIGVGSGKGKLAFLNNDYSQFGTGTKNVHWAGSDSKLTSTELSTYASTKQAAWGKLIQVPSVATSVAIPFNKAGSNAVDLSVDQLCGVFSGRITTWNQ", "values": [{"measurement": "IC50", "setting": "[1]", "value": 18.9, "unit": "nM"}, {"measurement": "IC80", "setting": "[1]", "value": 151, "unit": "nM"}, {"measurement": "obvious symptoms of toxicity (diarrhea, ruffled fur, abnormal gait)", "setting": "[2]", "value": "Neither of rX-DING-CD4^pep treatment nor nX-DING-CD4 treatment caused any obvious symptoms"}, {"measurement": "expression of EcoHIV Tat mRNA and vif mRNA versus saline or heat inactivated peptide", "setting": "[3]; 48 hours", "value": "decreased expression"}, {"measurement": "transcription of EcoHIV blocked", "setting": "[3]; two days after infection", "value": 75, "unit": "%"}, {"measurement": "expression of X-DING-CD4 mRNA", "setting": "[4]", "value": "induced expression of X-DING-CD4 mRNA"}]}
